Test results from the RNAGym collection of RNA variant scans (doi:10.7554/elife.90254).

B1: LINE1-full (parent)
chain: UACGUAGGUGGUUUUCCCCUGAUAGUGCUAAGGGGGCCUGGAAGUUUGGACUGGGCAGAGCUCAACACAGCGUGGCAAAGUGGCUGUGGCUAGACUGCCUCUCUGGAUUCCUCGUCACUCAGCAGGGCAUCUCUGAGAGAAAUGCC

Variants of: B1
Assay: self-cleavage, relative activity (ratio to wild type); higher = more cleavage; in vitro, sequencing; the parent is a self-cleaving ribozyme

Variant	self-cleavage
UACGUAGGUGGUUUUCCCCUGGUAGUGCUAAGGGGGCCUGGAAGUUUGGACUGGGCAGAGCUCAACACAGCGUGGCAAAGUGGCUGUGGCUAGACUGCCUCUCUGGAUUUCUCGUCACUCAGCAGGGCAUCUCUGAGAGAAAUGCC [A22G C110U]	0.92
UACGUAGGUGGUUUUCCCCUGAUAGUGCUAAGGGGGCCUGGAAGUUUGGACUGGGCAGAGCUCAACACAGCGUGGCAGAGUGGCCGUGGCUAGACUGCCUCUCUGGAUUCCUCGUCACUCAGCAGGGCAUCUCUGAGAGAAAUGCC [A78G U85C]	0.11
UACGUAGGUGGUUUUCCCCUGUUAGUGCUAAGGGGGCCUGGAAGUUUGGACUGGGCAGAGCUCAACCCAGCGUGGCAAAGUGGCUGUGGCUAGACUGCCUCUCUGGAUUCCUCGUCACUCAGCAGGGCAUCUCUGAGAGAAAUGCC [A22U A67C]	0.05
UACGUAGGUGGUUUUCCCCUGAUAGUACUAAGGGGGCCUGGAAGUUUGGACUGGGCAGAGCUCAACACAGCGUGGCAAAGUGGCUGUGGCUAGACUGCCUCUCUGGAUUCCUCGUCACUCAGCAGGGCGUCUCUGAGAGAAAUGCC [G27A A129G]	2.07
UACGUAGGUGGUUUUCCCCUGAUAGUGCUAAGGGGGCCUGGAAGAUUGGACUGGGCAGAGCUCAACACAGCGUGGCAAAGUGGCCGUGGCUAGACUGCCUCUCUGGAUUCCUCGUCACUCAGCAGGGCAUCUCUGAGAGAAAUGCC [U45A U85C]	0.24
UACGUAGGUGGUUUUCCCCUGAUAGUGCUAAGGGGGCCUGGAAGUUUGGACUGGGUAGAGCUCAACACAGCGUGGCAAAGUGGCUGUGGCUAGACUGCCUCUCUGGAUUCCUCGUCACUCAGCAGGGCAUCUCUGAGGGAAAUGCC [C56U A138G]	0.31
UACGUAGGUGGUUUUCCCCUGAUAGUGCUAAGGGGGCCGGGAAGUUUGGACUGGGCAGAGCUCAACACAGCGUGGCAAGGUGGCUGUGGCUAGACUGCCUCUCUGGAUUCCUCGUCACUCAGCAGGGCAUCUCUGAGAGAAAUGCC [U39G A79G]	1.28
UACGUAGGUGGUUUCCCCCUGAUAGUGCUAAGGGGGCCUGGAAGUUUGGACUGGGCAGAGCUCAACACAGCGUGGCAAAGUGGCUGUGGCUAGACUGCCUCUCUGGAAUCCUCGUCACUCAGCAGGGCAUCUCUGAGAGAAAUGCC [U15C U108A]	2.1
UACGUAGGUGGUUUUCCCCUGGUAGUGCUAAGGGGGCCUGGAAGUUUGGACUGGGCAGAGCUCAACACAGCGUGGCAAAGUGGCUGUGGCUAGACUGCCUCUCUGGAUUCCUCGGCACUCAGCAGGGCAUCUCUGAGAGAAAUGCC [A22G U115G]	1.23
UACGUAGGUGGUUUUCCCCUGAUAGUGCUAAGGGGGCCUGGAAGUUUGGACUGGGCAGAGCUCAACACAGCGUGGCGAAGUGGCUGUGGCUAGACUGCCUCUCUGGAUACCUCGUCACUCAGCAGGGCAUCUCUGAGAGAAAUGCC [A77G U109A]	1.75
UACGUAGGUGGUUCUCCCCUGAUAGUGCUAAGGGGGCCUGGAAGUUUGGACUGGGCAGAGCUCAACACAGCGUGGCAAAGUGGCUGUGGCUAGACUGCCACUCUGGAUUCCUCGUCACUCAGCAGGGCAUCUCUGAGAGAAAUGCC [U14C U100A]	0.9
UACGUAGGUGGUUUUCCCCUGAUAGUGCUAAGGGGGCCUGGAAGCUUGGACUGGGCAGAGCUCAACACAGCGUGGCAAGGUGGCUGUGGCUAGACUGCCUCUCUGGAUUCCUCGUCACUCAGCAGGGCAUCUCUGAGAGAAAUGCC [U45C A79G]	1.15
UACGUAGGUGGUUUUCCCCUGAUAGUGCUAAGGGGGCCUGGAAGUUUGGACUGGGCAGAGCCCAACACAGCGUGGCAAAGUGGCUGUGGCUAGACUGCCACUCUGGAUUCCUCGUCACUCAGCAGGGCAUCUCUGAGAGAAAUGCC [U62C U100A]	0.05
UACGUAGGUGGUUUUCCCCUGAUAGUGCUAAGGGGGCCUGGAAGUUUGGACUGGGCAGAGCUCAGCACAGCGUGGCAAAGUGGCUGUGGCUGGACUGCCUCUCUGGAUUCCUCGUCACUCAGCAGGGCAUCUCUGAGAGAAAUGCC [A65G A92G]	0.09
UACGUAGGUGGUUUUCCCCUGAUAGCGCUAAGGGGGCCUGGAAGUUUGGACUGGGCAGAGCUCAACACAGCGUGGCAAAGUGGCUGUGGCCAGACUGCCUCUCUGGAUUCCUCGUCACUCAGCAGGGCAUCUCUGAGAGAAAUGCC [U26C U91C]	0.73
UACGUAGGUGGUGUUCCCCUGAUAGUGCUAAGGGGGCCCGGAAGUUUGGACUGGGCAGAGCUCAACACAGCGUGGCAAAGUGGCUGUGGCUAGACUGCCUCUCUGGAUUCCUCGUCACUCAGCAGGGCAUCUCUGAGAGAAAUGCC [U13G U39C]	0.7
UACGUAGGUGGUUUUCCCCUGAUAGUGCUAAGGGGGCCUGGAAGUUUGGACUGGGCAGAGCUCAACACAGCGUGGCAAAGUGGCCGUGGCUAGACUGCCUCUCUGGAUUCCUCGUCACUCAGCAGGGCGUCUCUGAGAGAAAUGCC [U85C A129G]	0.16
UACGUAGGUGGUUUUCCCCUGAUAGUGCUAAGGGGGCCUGGAAGUUUGGACUGGGCAGAGCUCGACACAGCGUGGCAAAGUGGCUGUGGCUAGACUGCCUCUCUGGAUUCCUCGUCACUCAGCAGGGCAUCUUUGAGAGAAAUGCC [A64G C133U]	0.06
UACGUAGGUGGUUCUCCCCUGAUAUUGCUAAGGGGGCCUGGAAGUUUGGACUGGGCAGAGCUCAACACAGCGUGGCAAAGUGGCUGUGGCUAGACUGCCUCUCUGGAUUCCUCGUCACUCAGCAGGGCAUCUCUGAGAGAAAUGCC [U14C G25U]	1.26
UACGUAGGUGGUUUUCCCCUGAUAGUGCCAAGGGGGCCUGGAAGUUUGGACUGGGCAGAGCUCAACACAGCGUGGCAAAGUGGCUGUGGCUAGACUGCCUCUCUGGAUUCCUCGUCACACAGCAGGGCAUCUCUGAGAGAAAUGCC [U29C U119A]	1.21

Variant	self-cleavage
UACGUAGGUGGUUUUCCCCUGAUAGUGCUAAGGGGGCCUGGAAGUUUGGACUGGGCAGAGCUCAACACAGCGUGGCAAAGUGGCCGUGGCUAGACUGCCUAUCUGGAUUCCUCGUCACUCAGCAGGGCAUCUCUGAGAGAAAUGCC [U85C C101A]	0.12
UACGUAGGUGGUUUUCCCAUGAUAGUGCUAAGGGGGCCAGGAAGUUUGGACUGGGCAGAGCUCAACACAGCGUGGCAAAGUGGCUGUGGCUAGACUGCCUCUCUGGAUUCCUCGUCACUCAGCAGGGCAUCUCUGAGAGAAAUGCC [C19A U39A]	2.04
UACGUAGGUGGUUUUCCCCUGAUAGUGCUAAGGGGGCCUGGAAGUUUGGACUGGGCAGAGCUCAACACAGCGUGGCAAAGUGGCUGUGGCUAGACUGCCUCUCUGGAUCCCUCGUCACUCAGCAGGGCAUCUCUGAGAGAACUGCC [U109C A142C]	1.45
GACGUAGGUGGCUUUCCCCUGAUAGUGCUAAGGGGGCCUGGAAGUUUGGACUGGGCAGAGCUCAACACAGCGUGGCAAAGUGGCUGUGGCUAGACUGCCUCUCUGGAUUCCUCGUCACUCAGCAGGGCAUCUCUGAGAGAAAUGCC [U1G U12C]	0.64
UACGUAGGUGGUUUUCACCUGAUAGUGCUAAGGGAGCCUGGAAGUUUGGACUGGGCAGAGCUCAACACAGCGUGGCAAAGUGGCUGUGGCUAGACUGCCUCUCUGGAUUCCUCGUCACUCAGCAGGGCAUCUCUGAGAGAAAUGCC [C17A G35A]	0.81
UACGUAGGUGGUUUUCCCCUGAUAGUGCUAAGGGGGCCUGGAAGUUUGGACGGGGCAGAGCUCAACACAGCGUGGCAAAGUGGCUGUGGCUAGACUGCCUCUCUGGAUUCCUCGUCACUCAGCAGGGCAUCUCUGUGAGAAAUGCC [U52G A136U]	1.1
UACGUAGGUGGUUUUCCCCUGAUAGUGCUAAGGGGGCCUGGAAGUUUGGACUGGGCAGAGCUCAACACAGCGUGGCAAAGUGGCAGUGGCUAGACUGCCUCUCUGGAUUCCUCGUCACUCUGCAGGGCAUCUCUGAGAGAAAUGCC [U85A A121U]	0.07
UACGUAGGUGGUUUUCCCCUGAUAGUGCUAAGGGGGCCUGGAAGUUUGGACUGGGCAGAGCUCAACACAGCGUGGCAAAGUGGCUGAGGCUAGACUGCCUCUCUGGACUCCUCGUCACUCAGCAGGGCAUCUCUGAGAGAAAUGCC [U87A U108C]	0.11
UACGUAGGUGGUUUUCCCCUGAUAGUGCUAAGGGGGCCUGGAAGUUUGGACUGGGCAGAGCUCAUCACAGCGUGGCAAAGUGGCUGUGGCUAGACUGCCUCUCUGGAUUCCUCGUCACUCAGCAGGGCGUCUCUGAGAGAAAUGCC [A65U A129G]	0.38
UACGUAGGUGGUUUUCCCCUGAUAGUGCUAAGGGGGCCUGGAAGUAUGGACUGGGCAGAGCUCAACACGGCGUGGCAAAGUGGCUGUGGCUAGACUGCCUCUCUGGAUUCCUCGUCACUCAGCAGGGCAUCUCUGAGAGAAAUGCC [U46A A69G]	0.36
UACGUAGGUGGUUUUCCCCUGAUAGUGCUAAGGGACCCUGGAAGUUUGGACUGGGCAGAGCUCAACACAGCGUGGCAAAGUGGCUGUGGCUAGACUGCCUCUCUGGAUUCCUCGUCACUCAGCAGGGCAUCUCUGAGAGAAAUGCC [G35A G36C]	1.05
UACGUAGGUGGUUUUCCCCUGAUAGUGCUAAGGGGGCCUGGAAGUUAGGACUGGGCAGAGCUCGACACAGCGUGGCAAAGUGGCUGUGGCUAGACUGCCUCUCUGGAUUCCUCGUCACUCAGCAGGGCAUCUCUGAGAGAAAUGCC [U47A A64G]	0.2
UACGUAGGUGGUUUUCCCCUGAUAGUGCUAAGGGGGCCUGGAAGUUUGGACUGGGCAGAGCUCAACACAGCGUGGCAAAGUGGCUGCGGCUAGACUGCCUCUCUGGAUUCCUCGUCACUCAGCAGGGCAUCUCUGAGUGAAAUGCC [U87C A138U]	0.24
UACGUAGGUGGUUUUCCCCUGAUAGUGCUAAGGGGGCCUGGAAGUUUGGACUGGGCAGAGCUCAACCCAGCGUGGCAAAGUGGCUGUGGCUAGACUGCCUCUCUGGAUUCCUCGUCACUCAGCAGGGCAUCUCUGAGAGAGAUGCC [A67C A141G]	0.12
UACGUAGGUGGUUUUCCCCUGAUAGUGCUAAGGGGGCCUGGAAGUUUGGACUGGGCAGAGCACAACACAGCGUGGCAAAGUGGCUGUGGCUAGACUGCCUCUCUGGAUUCCUCGUCACUCAGCAGGGCAUCUCUGAGAGAAAUGCC [U62A]	0.04
UGCGUAGGUGGUUUUCCCCUGAUAGUGCUAAGGGGGCCUGGAAGUUUGGACUGGGCAGAGCUCAACACAGCGUGGCAAAGUGGCUGUGGCUAGACUGCCUCUCUGGAUUCCUCGCCACUCAGCAGGGCAUCUCUGAGAGAAAUGCC [A2G U115C]	1.43
UACGUAGGUGGUUUUCCCCUGAAAGUGCUAAGGGGGCCUGGAAGUUUGGACUGGGCAGAGCUCAACACAGCGUGGCAAAGUGGCUGUGGCUAGACUGCCUCUCUGGAGUCCUCGUCACUCAGCAGGGCAUCUCUGAGAGAAAUGCC [U23A U108G]	1.59
UACGUAGGUGGUUUUCCCCUGAUAGUGCUAAGGGGGCCUGGAAGUUUGGACUGGGCAGAGCUCAACACAGCGUGGCAAAGUGGCUGUGGCUAGACUGCCUCUCUGGAUUCCACGUCACUCGGCAGGGCAUCUCUGAGAGAAAUGCC [U112A A121G]	1.82
UACCUAGGUGGUUUUCCCCUGAUAGUGCUAAGGGGGCCUGGAAGUUUGGACUGGGCAGAGCUCAACACAGCGUGGCAAAGUGGCUGUGGCUAGACUGCCUCUCUGGAUUCCUCGUCACUCAGCAGGGCAUCUCUGAGAGAAAUGCC [G4C]	1.17
